Assay results reported in the nanobody polyreactivity screen of Harvey et al. (2022).

Assay: yeast display, Sf9 membrane polyspecificity reagent, FACS + sequencing; frameworks hold sequencing errors
Summary of the method: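 Nanobodies came from a synthetic yeast display library in Saccharomyces cerevisiae BJ5465, induced with galactose for 36–48 hours and stained for 1 hour at 4 °C with 10% biotinylated, detergent-solubilized Sf9 membrane reagent. Cells were enriched on streptavidin microbeads and then FACS-sorted, with low and high (top ~1%) gates set on anti-HA fluorescence for expression and streptavidin fluorescence for reagent binding. Each polyreactivity label reflects the gate a clone came from. Genes were amplified by colony PCR, sequenced by MiSeq 2 × 250 and filtered by CDR length.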

Row | Sequence | polyreactivity (PSR sort gate)
1 | QVQLGESGGGLVQAGGSLRLSCAASGSTFYYYAMGWYRQAPGKERELVASINYSAGRTYYADSVKGRFTISRDNAKNTVYLQMNSLKPEDTAVYYCAAETPSGYYPQQYDYYWGQGTQVTVSS | high polyreactivity
2 | QVQLGESGGGLVQAGGSLRLSCAGSGRTFQHYFMGWYREAPGKDRELVASITNDDSTNYADSVKGLFTISRDNAKNTVYLQMNRLKPEDTAVYYCAADWTDVVPGYDYWGQGTQVTVSS | low polyreactivity
3 | QVQLGESGGGLVQAGGSLRLSCAPSGNPFTIYAMGWYRPAPGKERELVASSTGRGGSTYYADSVKGRFTISRDNEKNTVYLQMNSLKPEDTAVDYCNADYNSYLYRPPTTRDYWGQGTQVTVSS | low polyreactivity
4 | QVQLGESGGGLVQAGGSLRLSCASSGRTFVVNAMGWYSQAPGKATEFDAAISYRGDSTYYAVSVKGRFTISRDNAKNTVYLQMNSLKPEATAVYYCAARVLGPGRRYYYWGQCTQVTVSS | high polyreactivity
5 | QVQLGESGGGLVQAGGSLRLTCAASGLIFYRNARGWYRQAPGKERELVAAISKNGGNTYYADSVKGRFTISRDYAKNTVYLQMNSLKPEDTAVYYCAARELYGPFGYWGQGTQVTVSS | high polyreactivity
6 | QVQLGESGGGLVQAGGSLRLTCAASGSIFSIYAMGWYIQAPGKERELVAAIDSGTSTTYADSVKGRFTISRDNAKYTVYLQMYSLKPEDTAVYYCAAALYSDVASVATYGYYWGQGTQVTVSS | low polyreactivity
7 | QVQLGESGGGLVQAGGSVRLSCAASGGTFGWYAMGWYRPAPGKERELVAAITSSGGTTFDADSVKGRFTISRDNAKNTVYLQMNSLKPEDTAVYYCAKRGQRPTRYKLGKYDYWGQGTQVTVSS | high polyreactivity
8 | QVQLGESGGGLVQAGVSLRLSCAASGRTFGSYAMGWYRQAPGKESEMVAVISWSGGITYYADSVKGRFTISRDNAKNTVYLQMNSLKPEDTAVYYCAASPRRDENAGRVRLYYWGQGTQVTVSS | high polyreactivity
9 | QVQLGESGGGLVQAVGSLRLSCAASGITFGENAMGWSRQADGKERELVAAITSGGSTDYADSVKGRFTISRDNAKNSVYLQMYCLKPEDTAVYYWAAEAVAYYGSSYGYWGQGTQVTVSS | low polyreactivity
10 | QVQLGESGGVLVQAGGSLRLICAACGSTFSYYTMGWYRKAPGKEREVVAVIYTSGGNTYYADSVKGRFTISRDNAKNTVYLQMNSLKPEDTAVYYCAARWYGRGRYEYWGQGTQVTVSS | high polyreactivity
11 | QVQLGESGGVLVQEGGSLRLSSAASGSILSKYAIGWYRQAPGKERELVAVITSNSGRKYYADYLKGRFTISRDNAKNTVYLQMNSLKPEDTAVYYCAAQRRSSQNYYWGQGTQVTVSS | high polyreactivity
12 | QVQLGESVGGLVQAGGSLRLSCAASGFIIGYYAMGWYRPPPGTERELVAAISSTGGSTYYADSVKGRFTISRDNAKNTVYLQMNSLNPEDTAVYYCAKRFASYRYHPGYDYWGQGTQVTVSS | high polyreactivity
13 | QVQLHESGGGLVQAGGGLRLSCAASGSISSTGFMGWYRQAPGKEREPVAAIAPGTTTYYADSVKGRFTISRDNAKNTVYLQMNSLRPEDTAVFYCAVFTDNRVSFRYWGQGTQVTVSS | low polyreactivity
14 | QVQLHESGGGLVQAGGSLLSCAASGTISYYREMGWYRQAPGKERELVAGIGVGTITYYADSVKGRFTISRDNAKNTVYLHMNSLKPEDTAVYYCAAHFDGNDSHAYWGQGTQVTVSS | low polyreactivity
15 | QVQLHESGGGLVQAGGSLRLSCAASGSISAVGAMGWNRQPPGKEREFAASVNWGTNTNYADSVKGRFTFSRDNAKNTLYLQMNSLKPEDTGVYYCAVLPDWETRHDYWGHGTQVTVSS | low polyreactivity
16 | QVQLHESGGGLVQAGGSLRLSCAASGTISYAGPMGWYRQAPGKEREFVAGIGVGSNTNYADSVKGRYTIIRDNAKNTVYLQMNSLKPEDTAVYYCAVGGYAPLGRPYWGQGTQVTVCS | low polyreactivity
17 | QVQLHESGGGLVQAGGSLRLSCAASGTITDSGLMGWYRQAPGKERELVAGISSGGITNYADSVKGRFTISRDNAKNTVYLQMNSLKPEDTAVYWGQGTQVTVSS | low polyreactivity
18 | QVQLHESGGGLVQAGGSQRLSCASSGYIFYFQYMGWYRQAPGKEREFVAAISDGANTNYADSVKGRFTISRDNAKNTEYLQMNSLKPEDTAVYYCNADQYYWYEYDYWGQGTQVTVSS | low polyreactivity
19 | QVQLHESGGGLVQVGGSQRLSCAASGNIFYNYAMGWYRHAQGKEREFDATINHGTSINYADSVKGRFTISRDNAKNTVYLQMNSLKPEDTAVYYCAADLSWTDNLFYWGQGTQVTVSS | low polyreactivity
20 | QVQLHGSGGGLVQAGCSLRVSCAASGYIFQNVPMGWTRQAPGKERELVAGIDNGTSTNYADSVNGRFTISRDNAKNTVYMQMNSLKPEDTAVYYCAAAGQADDTLGYWGQGTQVTVSS | low polyreactivity
21 | QVQLIESGGGLVHAGGSLRLSCAASGSTYQANTMGWYSHAPGKERQLVAAISIRGANTYYADSVKGRFTISRDNAKNTVYIQMNSLKPEDTAVYDCATRVRKYSLRLDYWGQGTQVTVSS | high polyreactivity
22 | QVQLIESGGGLVQAGGSLRLSCAASGGTFRAYAMGWYRQAPGKEREFVAAITWSGGRTYYADSVKGRFTISRDNAKNTVYLQMNSLKPEDTEVYYCATDQGHYYHAEHDYWGQGTQVTVSS | low polyreactivity

Row | Sequence | polyreactivity (PSR sort gate)
23 | QVQLIESGGGLVQAGGSLRLSCAASGLTFYSYAMGWYRQAPGKEREFVAVINWSGGRTYYADSVKGRFTISRDTAKNTVFLQMNSLKPEDTAVYYCAAVRYFASSRRYDYLGQGTQVTVSS | high polyreactivity
24 | QVQLIESGGGLVQAGGSLRLSCAASGNIFAVYAMGWYRQAPGKERELVASITVSGASTYYADSVKGRFTISRDNAKNTVYLQMNSLKPEDTAVYYCAARIGSNQRKRYYWGQGTQVTVSS | high polyreactivity
25 | QVQLIESGGGLVQAGGSLRLSCAASGSIFYINTMGWYRQAPGKERELVATIRTSGGSTYADSVKGRFTISRDNAKNTVYLQMNSLKPEDTAVYYCAVRRYRSSSYGYYSWGQGTQVTVSS | high polyreactivity
26 | QVQLIESGGGLVQAGGSLRLSCAASGSTGIYAMGWYRQAPGKERELVAAITRRAGSTYYADSVKGRFTISRDNAKNTVYLQMNSLKPEDTAVYYCAAKGLWWYGTYVSYEYWGKGTQVTVSS | low polyreactivity
27 | QVQLKDSGCGLVQAGGSLRLSCAASGTISYRYRMGWYREAPRKELELVAGISFGSITYYADSVKGRFTISRDNAKNTVYLQMNSLKPVDIAVYYCAVYQKSYRFFPYWGQGTQVTVSS | high polyreactivity
28 | QVQLKESGGGLVQAGGSLRLSCAASGNIVDADIMGWYRQAPGKERELVASITDGGSTNYADSVKGRFTISRDNAKNTVYLQMNSLKPEDTAVYYCAAIAYPDIPTYFDYDSEYFYWGQGTQVTVSS | low polyreactivity
29 | QVQLLESAGGLVQAGGSLRLSCAASGTIGYNGWYRQAPGKERELVAAISTRDGSTYYADSVKGRFTISRDNAMNTGYLQINSLKPEDTAVYYCAARYPSDYDYWGQGTQVTVSS | low polyreactivity
30 | QVQLLESCGGLVQAGGSLRLSCAASGIIFARYAMGWYRPAPGKERELVASITTSGGRTYYADSVKGRFTISRDNAKNTVYLQMNSVKPEDTAVYYCAAYYKRDQMYYWGQGTQVTVSS | high polyreactivity
31 | QVQLLESGCGLVQAGGSLRLSCMASGSSLGDRMSWYRQAPGKEHELVATIYDGGITYYADSMKGRFTISRENAKNSVYLQMNSLRPEDTAVYYCGDSFEGYRYHVYCGQGTQVTVSS | low polyreactivity
32 | QVQLLESGGGIVQAGGSLRLSCVASGFTISVYAMVWYRHAPGKERELVAAISRVGSSNYADSVKGRFTISRDNAKNTVYLHMISLKTEDTSVYYCNAVLRHTWVSRGYGSWGQGTQVSVSS | high polyreactivity
33 | QVQLLESGGGLDQSGGSLRLSCAASGRIFTFNAMGWYRQAPGQERELVAAIRFRDGSTYYADSVKGRFTISRDNAKNNGYLQMYSLKPEDTAVYYSAATAYPWPYYYWGQGTQVTVSS | high polyreactivity
34 | QVQLLESGGGLFQAGGILRLSCAASGLIFWSNAMGWYRKEPGKERELVAAISRRGGRTYYADSVKGRFTISRDNAKNTVYVQMNSLKPEDSALYYCNADLYFLTFGYDYWGQGTQVTVSS | high polyreactivity
35 | QVQLLESGGGLVQAGGRHRLSCAASGRTFPGNAMGWYRKAPGKERELVAAISWSVDRTYYADSVKGRFTISRDNAKNTVYLQMNSLKPEDTSVYYCAAVEWWSSSLRMYYWGQGTQETVSS | low polyreactivity
36 | QVQLLESGGGLVQAGGSHRLSCAASGYIFHYNAMGWYIQAPGKERELVAAISYSGGSTYYADSVKGRFTISRDNAKNTVYLQMNSLKPEDTAVYYCAASRRPFPGYYWGQGTQVTVSS | high polyreactivity
37 | QVQLLESGGGLVQAGGSIRLSCSASGRTFARYVMGWYRQAPGKERELVASISNSGGSTYYSDSVKGRFTISRDNAQNTVYLQMNSLKPEDTEVYYCARRYYYYTTYRYDYWGQGTQVTVSS | high polyreactivity
38 | QVQLLESGGGLVQAGGSLRFTGAASGSTIAGNAMVWYRHEPGKERELVAVITRGGSTNYADSVKGRFTISRDNAKNNVYLQMNSLKPEDTAVYYCARYRFLLDYWRGGYYWGQGTQVTVSS | high polyreactivity
39 | QVQLLESGGGLVQAGGSLRISCAASGFTFWYYAMGWYRQAPGKERELVAAITSSGGSTYYADSVKGRFTISRDNAKNTVYLQMNSLKPEDTAVYYCAAGAPYRYYYWGQGTQVTVSS | high polyreactivity
40 | QVQLLESGGGLVQAGGSLRISCAASGIFDPNAMGWYIQAPGKERELVAAITSGGSTNYADSVKGRFTISRDNAKNTFYLQMNSLKPEDTAVYYCNEDYDRPDFYFWVQGTQVTVSS | low polyreactivity
41 | QVQLLESGGGLVQAGGSLRISCAASGRTFTYNAMGWYRQAPGKERELVAAITASGGSTYYADSVKGRFTISRDNAKNTVYLQMNSLKPEDTAVYYCAARWSSPYVKLGYWGQGTQVTVSS | high polyreactivity
42 | QVQLLESGGGLVQAGGSLRLRCAASGFTFRKYTMGWYRQAPGKERELVAAISSGVSTNYADSVKGRFTISRDNAKKTVYLQMNSLKAEDTAVYYCAARGGYYQGRYKYGYWGQGTQVTVSS | high polyreactivity
43 | QVQLLESGGGLVQAGGSLRLSCAASGFIFYEYAMGWYRQAPGKERELVAAITSGGSTDYADSVKGRFTISRDNAKNTVYLQMNSLKPEDTAVYYCNADLFTGYYWYNYWGQGTQVTVSS | low polyreactivity
